# Experiment: label from the status in PepcDB records
row,Sequence,protein production
1,MVRGIRGAITVEEDTPEAIHQATRELLLKMLEANGIQSYEELAAVIFTVTEDLTFAFPAEAARQIGMHRVPLLSAREVPVPGSLPRVIRVLALWNTDTPQDRVRHVYLREAVRLRPDLESAQ,not failed
2,YTSADNTWEPEENCDCPNLIQKFEESRAKSKKRGEKKPKCEEIQKLRGYERGLELAEIVGATDVTGDIKYLVRWQFCDEFDLVPSAQIVEKDPQMLIDYFQK,failed
3,MRKFIISFCCYVFFIFTLAAQDKAPHYTVIVSLDAFRWDYPAMYDTPNLNQMAREGVKATMLPSYPASTFPNHYTLATGLVPDHNGIINNTFWDVKRRRQYSMGDPATRNNPDYYLGEPIWITAQKQGVKTGNVYWVGSDIAIKGGYPTYYREYAEKPRLTFEQRVDSTIALLEKPEAERPRLVMLYFEEPDGVTHHHGPRSVEAAAIIHRMDSLVGMLRQGIASLPFGKDVNLIVTADHGMTEISDDRVVDMNKYLRPEWCEAVDGRTPTSIFTKPEYRDSVYNALKDVPHIHVWKKEEIPAELNYGSSDRIGDIVVAPELGWQFTDVPRALKGAHGYFPQSPDMQVMFRACGPDFKAGYESKGFVNVDIYPLLAHLLKITPEKTDGQFERIKDILKDVSFLEHHHHHH,failed
4,MTIQQWLFSFKGRIGRRDFWIWIGLWFAGMLALFSLAGKNLLDIQTAAFCLVCLLWPTAAVMVKRLHDRGRSGAWALLMILAWMLLAGNWVMLPGMWQWVVGRFIPTLILVMMLIDLGAFVGVQGENKFGKATQDVKFKAEP,failed
5,MQADPAIRRFAKKRNKRVDRMILDSNYMHTSIDRYFPNESKRRGRPDIIYLLLEMTQESILNHKNQLRTYVHTRNNQVIRISPITRMPKSYNRFIGLFEDLFEKRIITNNGKELLSMEESSLGDLINSIRRDRTILLHPKGEMRKPSEFISNANILIVIGGFSEGDFISDTSFINERYAIFDQELTIWSVANEMVANYERAVGLTLEHHHHHH,not failed
6,MVETLPALEIGEDERLDLENLATGAFFPVKGFMTREEALSVAHEMRLPTGEVWTIPILLQFREKPRVGPGNTVALLHGGERVALLHVAEAYELDLEALARAVFGTDSETHPGVARLYGKGPYALAGRVEVLKPRPRTPLEKTPEEVRAFFRQRGWRKVVAFQTRNAPHRAHEYLIRLGLELADGVLVHPILGAKKPDDFPTEVIVEAYQALIRDFLPQERVAFFGLATPMRYAGPKEAVFHALVRKNFGATHFLVGRDHAGVGDFYDPYAAHRIFDRLPPLGIEIVKVGAVFHCPLCGGIASERTCPEGHREKRTAISMTKVRALLREGKAPPSELVRPELLPILRRGV,not failed
7,MSAATPPFRDPQLPFAKRVDDLMSRLTLDEKTAFLHQFAPAVERLGIAPFRTGQEALHGVAWMGPATVFPQAVGLGATWNEELVRRVGEAVSKEARAMRARDDRVGLNVWSPTVNLLRHPLWGRNEEGYSEDPRLTSAVATAYTRGLRGDHPAYWRTAPVLKHWLAHNNETDRDTSSSSVRPRVLHEYDLRAFRDTVEAGAVAGVMPAYNLVNGRPNHLSPHLGRHLRTWTQEDLLVCSDAGAPSNLVDSEHYFDTHEEATAAALRAGVDSFTDHGTDSSKIVARVRGALEAGLLTEADVDAAVRRQLSVRFRLGEFDPENDPYSGAADTGADFDTPEHRALARDAAEQAVVLLKNDGVLPLAPETRVAVVGLLADECKLDWYSGTLIHRSTPLEGLYERFGADRVSFAEGVDRVRLRTADGRFLHVLPADDASAEAPGTEGALDPALLAGRTDLPPLTTDAVGTELALIDWGEGVLTLRASDGRYLSVAEDGFVRASADQPGGWVVQETFRLEPHDDGHLLRHTGTGRPVQVAADGVKVAAPDAAAGAAAGGAGSADAEVFELVVVERGEDAVTRVAAGADVVVVVAGNDPHINGRETEDRTTLRLPAQQERLLRAARAANPATVLALVSAYPYAVGVETLPAVLWTAHGGQAAGTALARILAGDVSPAGRLPQTWYSDDADLPGLLDYDVIGGRQTYLYFEGTPLFPFGHGLSYASFGYGDLTAQVRDGAVAVSFTVTNTGEVSADEVAQLYVRAEAPSVPRPRRELLAHRRLTLAPGASDRVSFEVPLSALAFWDVAHDRWRLEPGPYALLVGASSEDVRLTTTVTIDGEPAVPRPVGARGVQAVDFDEQSGTEIVDRTKAAGDAVAAVSGRTGELLYRDCDFGAGAAGVTVSVAGAGSVEVALDGGPAVAVLSPDAPTAGPYDYVELASAFTAEGVHDLRVTLRGALRLAHVGFSG,failed
8,VEGPCEAKIECSDNGDGTCSVSYLPTKPGEYFVNILFEEVHIPGSPFKADIEMPFDPSKVVASGPGLEHGKVGEAGLLSVNCSEAGPGALGLEAVSDSGTKAEVSIQNNKDGTYAVTYVPLTAGMYTLTMKYGGELVPHFPARVKVEPAVDTSRIKVFGPGIEGKDVFREATTDFTVDSRPLTQVGGDHIKAHIANPSGASTECFVTDNADGTYQVEYTPFEKGLHVVEVTYDDVPIPNSPFKVAVTEGCQPSRVQAQGPGLKEAFTNKPNVFTVVTRGAGIGGLGITVEGPSESKINCRDNKDGSCSAEYIPFAPGDYDVNITYGGAHIPGSPFR,failed
9,MAFLIISLIIMLIGLLRLKINKRSIIGGIFLASGLILSLASLFFELLNLIYLYLPSGDFATLIIAYGILPLIFLLVCGYFIFNSKTMRTKEGKSATAKLSALFGLNLLIAFPALFMLFTFSTKTIPQIIWYILLYILLIDIILCFLFAAYILYSWMSQMIPLQKKIDYIIILGSGVRSEEVPPLLKSRLDKGIEYYQKNPTAKFVVSGGQGADEPVSEAFAMRKYLHSQNIPNHQILFEDKFTTTYENMLFSKRIINEDWSDKEMPPSIIFSTNNYHVLRGSLYAQRVKLKAQGVGGTHSTLFLTYGLNS,failed
10,MEQWDHFHNQQEDTDSCSESVKFDARSMTALLPPNPKNSPSLQEKLKSFKAALIALYLLVFAVLIPLIGIVAAQLLKWETKNCSVSSTNANDITQSLTGKGNDSEEEMRFQEVFMEHMSNMEKRIQHILDMEANLMDTEHFQNFSMTTDQRFNDILLQLSTLFSSVQGHGNAIDEISKSLISLNTTLLDLQLNIENLNGKIQENTFKQQEEISKLEERVYNVSAEIMAMKEEQVHLEQEIKGEVKVLNNITNDLRLKDWEHSQTLRNITLIQGPPGPPGEKGDRGPTGESGPRGFPGPIGPPGLKGDRGAIGFPGSRGLPGYAGRPGNSGPKGQKGEKGSGNTLTPFTKVRLVGGSGPHEGRVEILHSGQWGTICDDRWEVRVGQVVCRSLGYPGVQAVHKAAHFGQGTGPIWLNEVFCFGRESSIEECKIRQWGTRACSHSEDAGVTCTL,failed
11,MSADIVFDRGSPSDIDEIKTFTSNTWKVGYYTDLYSKLADTGTMDDYVDKVIERWVNDGSVYVLRVSGRPVATIHMEKLPDGSVMLGGLRVHPEYRGSRLGMSIMQETIQFLRGKTERLRSAVYSWNEPSLRLVHRLGFHQVEEYPIYTFQGGSTAVPALKPVNERYAGRWRCFFIDWKYMCSDDPDIIHEEYSNNLIVDGSTFVYFDIYEGGIDLFVNDSDDASSFIEKYRSMNGRITFYVRKALANGLPYVPASSLTVWEYRY,not failed
12,MSYGLIIVLMIILGIGLWHTKKYHRAVVNQVAHVWITKNAFEHTALGMAIVSPDCRFLKVNRAYGEITGYTRPELLKMAVKELTHPEDQEKDTPYLQEVFAGNIHSFTTVKRYIHKNGSTIWVRSTISAVRTERGNLKYFVAQIQDMTIAKNAEDELRKSRDNAEVLARTDYLTKTLNRRAFIERLQEELERTKRTQEGFAMILVDIDYFKKVNDQFGHLAGDYVLQKFADCLSNNVRPYDFIGRYGGEEFIICLPDTDVEQAALVAERMRESVEALEVDYLHAQIKVTGSFGVAVYDSHSSDTLDELIEKADGAMYVAKNHKNTVYQWVS,failed
13,MVQAHGGRSRAQPLTLSLGAAMTQPPPEKTPAKKHVRLQERRGSNVALMLDVRSLGAVEPICSVNTPREVTLHFLRTAGHPLTRWALQRQPPSPKQLEEEFLKIPSNFVSPEDLDIPGHASKDRYKTILPNPQSRVCLGRAQSQEDGDYINANYIRGYDGKEKVYIATQGPMPNTVSDFWEMVWQEEVSLIVMLTQLREGKEKCVHYWPTEEETYGPFQIRIQDMKECPEYTVRQLTIQYQEERRSVKHILFSAWPDHQTPESAGPLLRLVAEVEESPETAAHPGPIVVHCSAGIGRTGCFIATRIGCQQLKARGEVDILGIVCQLRLDRGGMIQTAEQYQFLHHTLALYAGQLPEEPSP,failed
14,MATYSLANERLRALEDIEREIGAILQNAGTAILELSKEKTNERLLDRQAAAFTTSVQHVEAELSAQIRYLTQVATGQPHEGSSYSSRKDCQMALKRVDYARLKISDVARTCEQMLEN,failed
15,MGVDNFSTTKKMFTWEVPGERVITLMTAGNLATTQALISLLEERSKTPSERSPSILERPTMFEVARLVGATLKEVIADTAGTGQVASSQFKASVIVGGQVKGGLPTLFLIYPEGNFIEVTEDSPFFQIGEAKYGKPILVRAYDPDLSFEDTIRLLMVSFDSTIKANLSVGLPLDLQVYANDSFAIKEQSRVEADDAYFQSISERWGDALRKALSDLPPYKSLLEHHHHHH,failed
16,MSALPSYTQNGQTITFAFAQPLQLTIVTPEIIRVFINRGEQGESYAIEGHKIQATDFTIESAGDHYIIRTSALTIHLDSERHLDTFDKDGNALITLEHHHHHH,not failed
17,MSLPPILTSQIGPDSIELRLLVAADLEYFNGHFPEQAVLPGVTQLDWAVRLGCEHFGYSAAVANLEVLKFQQLILPGQEVTLVISHNATKEKLTFAYSDGDHRYASGRISFASKQDDGLEHHHHHH,failed
18,MSRVKNVVELLETKGVDALYLTKKTNVNYISGFPDEEAYAVICKDGNFLVTDSRYMELAEKVCKDFEIINWHNFDRSVAKAVKSVCDKVGIKKLGFERTNIVFDKYEELKNLIEKDNGELIPTENIVETLRYVKDKDEIKNTRKACEIADKALEELIPHIKAGVSEIELATKLEYFMKMNGAQNIGFETILISGAKTSLLHGKPSDKIIEKGDFVLIDYGAMYNGYISDTTRTFIVGGASEKQLEIYNLVKEAQNVGVENMKAGVHATIPDAEIRKVVKKYEDYYYQGIGHGVGRDVHEEPFIGNYGDKIIEEGCIITMEPGIYFPGWGGVRIEDTVLITKNGPERLTKFPKDLMILDK,failed
19,MDARFLYPLESCKIIHLLRHGQALHNVEAEKDRNALLSPHLFDAPLTDHGHQQVENLRERVVSSGLLKRVELVVTSPLFRTMQTAVGVFGNEYKQSSMTSSPPILALEVARDRNGVRPPDMRRNVSEYQTLFPTIDFSQIESEEDNLWRPDVRESEEEILARGLEFMKWLWKRPEKEVAVVSHGIVLQHMLYVFANDCDLSIRHELCKRFANCEIRTVVIVDKGMASSTEN,failed
20,MFLSGAHSFNANCRRQRQRVFGAPRVPLGESKICCVWAQHFLPCSRVYDPMTSKVSSPTLLEALSSDFLACKICLEQLHTPKTLPCLHTYCQDCLAQLDIGGQVRCPECRETVPVPPEGVAAFKTNFFVNGLLDLVKARAAGDSHSGKPTCALCPLVGGKSSGGPATARCLDCADDLCQACADGHRCSRQTHKHRVVDLVGYRAGWYDEEARERQASQCPQHPGETLCFLCQPCSQLLCKDCRLGPHIDHPCLPLAEAVRSRKPGLEELLAGVDSNLLELEATRVAEKEALALLREQAASVGTQVEEAAERILKSLLAQKQEVLGQLRALVEAAEEATRERLTKIESQEQVAKAAAAFARRVLSLGLEAEILSLEGAITQRLRQLQDTPWTSGPTRCVLPQLELHPGLEDKNCHLLRLSFEEPRQSQKDGGKVGAGTQGGDEAQSQGDDRTKTGKQGGAQPLIPKEGKAQNPPEDDEVLIERGNRPNKKKKCKGRGKSVSREPSPILRPNLEGSGPLPRPVFSWSFPTRMPGDKRSPRITGLCPYGPQEILVADEQNRVLKRFSLNGDYKGTVPVPEGCSPCSVAALQNAVAFSANAKLYLVSPEGEVQWRRSLSLAQSSHAVAAMPCGDRVAVSVAGHVEVYKKEGSLATRFIPGGKASRGQRALVFLTTSPQGNFVGSDWQQNSVVFCDGLGQVIWEYKGPGLHGCQPGSVSVDKKGYIFLTLREVNKVVILDPKGSLLGDFLTAYHGLEKPRVTTMVDGKYLVVSLSNGTIHVFRVRFPDS,failed

# Reference: a protein production outcome set (Wang et al. 2014)
